Source: the Human Domainome abundance scans (Beltran et al. 2025)
± gives the uncertainty stated by the source.

B1: PMS1 protein homolog 1, residues 572 to 637; numbered along this chain, P54277 (parent)
chain: KKPMSASALFVQDHRPQFLIENPKTSLEDATLQIEELWKTLSEEEKLKYEEKATKDLERYNSQMKR

Variants of: B1
Assay: abundance fitness (aPCA) (normalised: wild type 0, dead -1); higher = more abundant; growth selection in yeast, the domain comes from the species named
Conditions: Homo sapiens

Variant	abundance fitness
KKPMSASALFVQDHRPQFLIENPKTSLEDATLQIEELWKTLSEEEKLKYEEKATKTLERYNSQMKR	-0.145 ± 0.11
KKPMSASALFVQDHRPQFLIENPKTSLEDATLQIEELWKTLSEEEKLQYEEKATKDLERYNSQMKR	-0.178 ± 0.087
KKPMSASALFVQDHRPQFLIENPKTSLEDATLQIEELWKTLSEEEKLYYEEKATKDLERYNSQMKR	-0.078 ± 0.14
KKPMSYSALFVQDHRPQFLIENPKTSLEDATLQIEELWKTLSEEEKLKYEEKATKDLERYNSQMKR	-0.925 ± 0.45
KKPMSASALFVQDHRPQFLIENPKTSLEDATLQIEELWKTLSEEEQLKYEEKATKDLERYNSQMKR	-0.106 ± 0.078
KKPMSASALFVQDHRPQFLIENPKTSLEDATLQIEELWKTLSEEENLKYEEKATKDLERYNSQMKR	-1.37 ± 0.27
KKPMSASALFVQDHRPQFLIENPKTSLEDHTLQIEELWKTLSEEEKLKYEEKATKDLERYNSQMKR	-0.34 ± 0.32
KKPMSASALFVQDHRPQFLIENPKTPLEDATLQIEELWKTLSEEEKLKYEEKATKDLERYNSQMKR	-0.21 ± 0.06
KKPMSASALFVQDHRPQFLIENPKTYLEDATLQIEELWKTLSEEEKLKYEEKATKDLERYNSQMKR	-0.861 ± 0.061
KKPMSASALFVQDHRPQFLIENPKTTLEDATLQIEELWKTLSEEEKLKYEEKATKDLERYNSQMKR	-0.061 ± 0.042
KKPMSASALFVQDHRPQFLIENPKTHLEDATLQIEELWKTLSEEEKLKYEEKATKDLERYNSQMKR	-0.349 ± 0.06
KKPMSASALFVQDHRPQFLIENPKTFLEDATLQIEELWKTLSEEEKLKYEEKATKDLERYNSQMKR	-0.775 ± 0.08
KKPMSASALFVQDHRPQFLIENPKTSLEDATLQIEELWKTLSEEEKLKYEEKATKDLERYGSQMKR	-0.201 ± 0.066
KKPMSASALFVQDHRPQFLIENPKTSLEDATGQIEELWKTLSEEEKLKYEEKATKDLERYNSQMKR	-0.261 ± 0.092
KKPMSASALFVQDHRPQFLIENPKTSLEDATLQIEELWKTLSIEEKLKYEEKATKDLERYNSQMKR	-0.133 ± 0.063
KKPMSASALFVQDHRPQFLIENPKTSLEDATLQIEELWKTLSEEEKLKYEENATKDLERYNSQMKR	-0.285 ± 0.11
KKPMSASALFVQDHRPQFLIENPKTSLEDATLQIEELWKTLSEEEKLKYEEGATKDLERYNSQMKR	-0.213 ± 0.068
KKPMSASALFVQDHRPQFLIENPKTSLEDATLQIEELWKTLSEEEKLKYEERATKDLERYNSQMKR	-0.041 ± 0.066
KKPMSASALFVQDHREQFLIENPKTSLEDATLQIEELWKTLSEEEKLKYEEKATKDLERYNSQMKR	-0.087 ± 0.11
KMPMSASALFVQDHRPQFLIENPKTSLEDATLQIEELWKTLSEEEKLKYEEKATKDLERYNSQMKR	-0.321 ± 0.16
KFPMSASALFVQDHRPQFLIENPKTSLEDATLQIEELWKTLSEEEKLKYEEKATKDLERYNSQMKR	-0.242 ± 0.41

Variant	abundance fitness
KKPMSASALFVQDHKPQFLIENPKTSLEDATLQIEELWKTLSEEEKLKYEEKATKDLERYNSQMKR	-0.38 ± 0.23
KKPMSASALFVQDHQPQFLIENPKTSLEDATLQIEELWKTLSEEEKLKYEEKATKDLERYNSQMKR	-0.336 ± 0.12
KKPMSASALFVQDHRPQFLIENPKTSLEDATLQIEELWKTLSEEEKLKYEEKNTKDLERYNSQMKR	-0.363 ± 0.12
KKPMSASALFVQDHRPQFLIENPKTSLEDATLQIEELWKTLSEEEKLKYEEKATKDLEHYNSQMKR	-0.085 ± 0.16
KKPMSASALFVQDHRPQFLIENPKTSLEDATLQIEELWKTLSEEEKLKYEEKATKDLERYNSCMKR	-0.096 ± 0.11
KKPMSASALFVQDHRPQFLIENPKTSLEDATLQIEELWKTLSEEEKLKYEEKATKDLERYNSNMKR	0.075 ± 0.16
KKPMSASALFVQDHRPQFLIENPKTSLEDATLQIEELWKTLSEEEKLKYEDKATKDLERYNSQMKR	-0.072 ± 0.12
KKPMSASALFVQDHRPQFLIENPKTSLEDATLQIEELWKTLSEEEKLKYENKATKDLERYNSQMKR	-0.062 ± 0.095
KKPMSASALFVQDHRPQFLIENPKTSLEDATLQIEELWKHLSEEEKLKYEEKATKDLERYNSQMKR	-0.087 ± 0.1
KKPMSASALFVQDHRPQFLIENPKTSLEDATLQIEELWKCLSEEEKLKYEEKATKDLERYNSQMKR	0.115 ± 0.21
KKPMSASALFVQDHRPQFLIENPKTSLEDATLQIEELWKELSEEEKLKYEEKATKDLERYNSQMKR	-0.028 ± 0.18
KKPMSASALFVQDHRPQFLIENPKTSLEDATLQIEELWKTLSEEEKLKYEEKATKDLERYNSQMHR	-0.373 ± 0.25
KKPMSASALFVQDHRPQFLIENPKTSLEDATLQIEELWKTLSEEEKLKYEEKATDDLERYNSQMKR	-0.045 ± 0.11
KKPMSASALFVQDHRPQFLIENPKTSLEDATLQIEELWKTLSEEEKLKYEEKATLDLERYNSQMKR	-0.065 ± 0.073
KKPMSASALFVQDHRPQFLIENPKTSLEDATLQIEELWKTLSEEEKLKYEEKATNDLERYNSQMKR	-0.103 ± 0.11
KKPMSASALFVQDHRPQFLIENPKKSLEDATLQIEELWKTLSEEEKLKYEEKATKDLERYNSQMKR	-0.302 ± 0.15
KKPMSASALFVQDHRPQFLIENPKNSLEDATLQIEELWKTLSEEEKLKYEEKATKDLERYNSQMKR	-0.192 ± 0.12
KKPMSASALFVQDHRPQFLIENPKPSLEDATLQIEELWKTLSEEEKLKYEEKATKDLERYNSQMKR	-0.627 ± 0.14
KKPMSASALFVQDHRPQFLIENPKTSLEDATLQIEELWKTCSEEEKLKYEEKATKDLERYNSQMKR	-0.196 ± 0.13
KKPMSASALFVQDHRPQFLIENPKTSLEDATLQIEELWKTFSEEEKLKYEEKATKDLERYNSQMKR	-0.733 ± 0.1
KKPMSASALFVQDHRPQFLIENPKTSLEDATLQIEEPWKTLSEEEKLKYEEKATKDLERYNSQMKR	-0.995 ± 0.4

Variant	abundance fitness
KKSMSASALFVQDHRPQFLIENPKTSLEDATLQIEELWKTLSEEEKLKYEEKATKDLERYNSQMKR	-0.605 ± 0.34
KKPMSASGLFVQDHRPQFLIENPKTSLEDATLQIEELWKTLSEEEKLKYEEKATKDLERYNSQMKR	-0.223 ± 0.13
KKPMSASALKVQDHRPQFLIENPKTSLEDATLQIEELWKTLSEEEKLKYEEKATKDLERYNSQMKR	-0.368 ± 0.11
KKPMSASALRVQDHRPQFLIENPKTSLEDATLQIEELWKTLSEEEKLKYEEKATKDLERYNSQMKR	-0.651 ± 0.074
KKPMLASALFVQDHRPQFLIENPKTSLEDATLQIEELWKTLSEEEKLKYEEKATKDLERYNSQMKR	-0.283 ± 0.12
KKPLSASALFVQDHRPQFLIENPKTSLEDATLQIEELWKTLSEEEKLKYEEKATKDLERYNSQMKR	-0.017 ± 0.096
KKPWSASALFVQDHRPQFLIENPKTSLEDATLQIEELWKTLSEEEKLKYEEKATKDLERYNSQMKR	-0.485 ± 0.11
KKPMSASALFVQDHRPQFLIENPKTSLEDATLQIQELWKTLSEEEKLKYEEKATKDLERYNSQMKR	-0.414 ± 0.47
KKPMSASALFVQDHRPQFLIENPKTSLEDATLQIEELWKTLSEEEKLKYEEKATKDLERYNDQMKR	-0.115 ± 0.15
KKPMSASALFVQDHRPQFLIENPKTSLEDATLQIEELWKTLSEEEKLKYEEKATKDLERYNFQMKR	-0.067 ± 0.078
KKPMSASALFVQDHRPQFLIENPKTSLEDATLQIEELWKTLSEEEKLKYEEKATKDLFRYNSQMKR	-0.321 ± 0.071
KKPMSASALFVQDYRPQFLIENPKTSLEDATLQIEELWKTLSEEEKLKYEEKATKDLERYNSQMKR	-0.063 ± 0.089
KKPMSASALFVQDHRPQFLIENPKTSLEDATLQIEELWKTLSEEEKLKYEEKADKDLERYNSQMKR	-0.016 ± 0.16
KKPMSASALFVQDHRPQFLIENPKTSLEDATLQIEELWKTLSEEEKLKYEEKANKDLERYNSQMKR	-0.045 ± 0.088
KKPMSASALFVQDHRPQFLIENPKTSLEDATLQIEELWKTLSEEEKLKYEEKAGKDLERYNSQMKR	0.07 ± 0.071
KKPMSASALFVQDHRPQFLIENPKTSLEDATLQIEELWKTLSEEEKLKYEEKAEKDLERYNSQMKR	0.096 ± 0.095
KKPMSASALFVQDHRPQFLIENPKTSLEDATLWIEELWKTLSEEEKLKYEEKATKDLERYNSQMKR	-0.696 ± 0.16
KKPMSASALFVQDHRPQFLIENPKTSLEDATLKIEELWKTLSEEEKLKYEEKATKDLERYNSQMKR	-0.06 ± 0.2
KKPMSASALFVQDHRPQFLIENPKTSLEDATLPIEELWKTLSEEEKLKYEEKATKDLERYNSQMKR	-0.579 ± 0.17
KKPMSASALFVQDHRPQFLIENPKTSLEDATLVIEELWKTLSEEEKLKYEEKATKDLERYNSQMKR	-0.329 ± 0.17
KKPMSASALFVQDHRPQFLIENPKTSLEDATLQIEELWKTLCEEEKLKYEEKATKDLERYNSQMKR	-0.28 ± 0.11

Variant	abundance fitness
KKPMSASALFVQDHRPQFLIENPKTSLEDATLQIEELWKTLSEEEKCKYEEKATKDLERYNSQMKR	-0.149 ± 0.12
KKPMSASALFVQDHRPQFLIENPKTSLEDATLQIEELWKTLSEEEKEKYEEKATKDLERYNSQMKR	-0.184 ± 0.14
KKPMSASALFVQDHRPQFLIENPKTSLEDATLQIEELWKTLSEEEKKKYEEKATKDLERYNSQMKR	-0.235 ± 0.16
KKPMSASALFVQDHRPQFLIENPKTSLEDATLQIEELWKTLSEEEKTKYEEKATKDLERYNSQMKR	0.005 ± 0.16
KKPMSAWALFVQDHRPQFLIENPKTSLEDATLQIEELWKTLSEEEKLKYEEKATKDLERYNSQMKR	-0.388 ± 0.24
KKPMSASALFVQDHRPQFLIENPKTSLEDATLQIEELWKTLSEEEKLKYEEKATKDLERKNSQMKR	-0.075 ± 0.11
KKPMSASALFVQDHRPQFLIENPKTSLEDATLQIEELWKTLSEEEKLKYEEKATKDLERFNSQMKR	0.063 ± 0.18
KKPMSASALFVQDHRPQFLIENPKTSLEDATLQIEELWKTLSEEEKLKYEEKATKDKERYNSQMKR	-0.123 ± 0.088
KKPMSASALFVQDHRPQFLIENPKTSLEDATLQIEELWKTLSEEEKLKYEEKATKDCERYNSQMKR	-0.084 ± 0.094
KKPMSASALFVQDHRPQFLIENPKTSLEDATLQIEELWKTLSEEEKLKYEEKATKDLERYNSQMKP	0.082 ± 0.1
KKPMSASALFVQDHRPQFLIENPKTSLEDATLQIEELWKTLSEEEKLKYEEKATKDLERYNSQMKV	0.097 ± 0.069
KKPMSASALFVQDHRPQFLIENPKTSLEDATLQIEELWSTLSEEEKLKYEEKATKDLERYNSQMKR	-0.081 ± 0.25
KKPMSASALFVQDHRPQFLIENPKTSLEDATLQIEELWKTLSEEEKLKCEEKATKDLERYNSQMKR	-0.621 ± 0.11
KKPMSASALFVQDHRPQFLIENPKTSLEDATLQIEELWKTLSEEEKLKQEEKATKDLERYNSQMKR	-0.496 ± 0.11
KKPMSASALFVQDHRPQFLIENPKTSLEDATLQIEELWKTLSEEEKLKYEEKATKDLERYNSQFKR	-0.095 ± 0.15
KKPMSASALFVQDHRPQFLIENPKTSLEDATLQIEELWKTLSEEEKLKYEEKATKDLERYNSQYKR	0.035 ± 0.14
KKPMSASALFVQDHRPQFLIENPKTSLEDATLQIEELWKTLSEEEKLKYEEKATKDLERYNSQRKR	-0.136 ± 0.083
KKPMSASALFVQDHRPQFLIENPKTSLEDATLQIEELWKTLSEEEKLKYEEKATKDLERYNSQSKR	-0.049 ± 0.055
KKPMSASALFVQDHRPQFLIENPKTSLEDATLQIEELWKTLSEEEKLKYEEKATKDLERYNSQDKR	-0.32 ± 0.2
